How the values were obtained:
[1] = target: Recombinant human truncated Tissue Factor (tTF) (human) (UniProt P13726); assay: cell-based or functional assay
[2] = target: I-A^d MHC Class II antigen on A20 cells (mouse) (UniProt P04228); assay: 125I-labelled Fab' binding to A20 cells
[3] = target: I-A^d MHC Class II antigen on A20 cells (mouse) (UniProt P04228); assay: method not given
[4] = target: Recombinant human truncated Tissue Factor (tTF) (human) (UniProt P13726); assay: 125I-tTF (in molar excess) tethered to A20 cells (I-A^d) through the bispecific antibody, at saturation

Chain of UniProt P13726 (P13726 33-251): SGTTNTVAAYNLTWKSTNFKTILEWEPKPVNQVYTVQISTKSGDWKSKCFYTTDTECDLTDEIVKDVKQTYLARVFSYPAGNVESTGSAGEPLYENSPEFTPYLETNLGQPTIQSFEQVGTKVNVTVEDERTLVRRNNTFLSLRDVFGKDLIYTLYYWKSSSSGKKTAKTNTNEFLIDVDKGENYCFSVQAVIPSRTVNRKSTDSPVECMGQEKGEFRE
Chain of UniProt P04228 (P04228 24-256, chain 1 of 2): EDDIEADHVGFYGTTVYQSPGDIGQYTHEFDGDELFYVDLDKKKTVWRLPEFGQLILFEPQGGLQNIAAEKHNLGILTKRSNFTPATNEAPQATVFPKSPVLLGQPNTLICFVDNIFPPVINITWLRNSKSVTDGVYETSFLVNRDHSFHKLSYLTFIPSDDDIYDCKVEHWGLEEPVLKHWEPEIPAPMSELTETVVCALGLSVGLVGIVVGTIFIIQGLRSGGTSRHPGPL
Chain of UniProt P04228 (P01921 28-265, chain 2 of 2, further chain): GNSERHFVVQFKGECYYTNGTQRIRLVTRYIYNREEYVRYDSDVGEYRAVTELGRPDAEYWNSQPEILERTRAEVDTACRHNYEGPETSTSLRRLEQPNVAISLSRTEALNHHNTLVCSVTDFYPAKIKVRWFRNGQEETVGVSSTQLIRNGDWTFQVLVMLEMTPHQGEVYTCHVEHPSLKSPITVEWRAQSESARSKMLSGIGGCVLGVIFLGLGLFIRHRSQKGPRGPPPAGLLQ

| Substance | Coagulation time (sec) of mouse plasma added to A20 cells incubated with the reagents [1] [s] | coagulation time of mouse plasma, A20 cells incubated with 21.5 nM bispecific antibody and 69 nM tTF [1] [s] | further results |
| --- | --- | --- | --- |
| B21-2 antibody | – | – | fold better affinity than M5/114 [3]: 10 fold |
| B21-2/10H10 bispecific antibody | 36 | 60 | molecules of tTF bound per A20 cell (molecules per cell) [4]: 310000 |
| B21-2/OX7 bispecific antibody | 165 | 140 | – |
| SFR8/10H10 bispecific antibody | 154 | 140 | – |

Second part, led by results:

| Coagulation time (sec) of mouse plasma added to A20 cells incubated with the reagents [1] [s] | coagulation time of mouse plasma, A20 cells incubated with 21.5 nM bispecific antibody and 69 nM tTF [1] [s] | Substance | further results |
| --- | --- | --- | --- |
| 160 | – | 10H10 F(ab')2 | – |
| 162 | – | 10H10 Fab' | – |
| 168 | – | B21-2 F(ab')2 | – |
| 165 | – | B21-2 Fab′ | concentration at which saturation of binding is reached [2]: 21.5 nM |

Source: patent US20030219441A1
